# Columns and labels:
# [1] = biological target: Collagen type I (Sigma), immobilized; assay: adherence assay; 37°C-grown MC02152 cells on CI-coated wells
# [2] = biological target: Mouse laminin (isolated from the EHS-sarcoma, Life Technologies) (mouse) (UniProt P19137); assay: adherence assay; 37°C-grown MC02152 cells on LN-coated wells
# [3] = biological target: Collagen type I (Sigma), immobilized; assay: adherence assay; 46°C-grown MC02152 cells on CI-coated wells
# [4] = biological target: Mouse laminin (isolated from the EHS-sarcoma, Life Technologies) (mouse) (UniProt P19137); assay: adherence assay; 46°C-grown MC02152 cells on LN-coated wells
# Collagen type IV (Sigma) [5] = assay: adherence assay; 37°C-grown MC02152 cells on CIV-coated wells
# Collagen type IV (Sigma) [6] = assay: adherence assay; 46°C-grown MC02152 cells on CIV-coated wells
# [7] = biological target: Collagen type I (Sigma), immobilized; assay: adherence assay; MC02152 cells (46°C) on CI-coated wells; no IgG
# [8] = biological target: Mouse laminin (isolated from the EHS-sarcoma, Life Technologies) (mouse) (UniProt P19137); assay: adherence assay; MC02152 cells (46°C) on LN-coated wells; no IgG
# Collagen type IV (Sigma) [9] = assay: adherence assay; MC02152 cells (46°C) on CIV-coated wells; no IgG
# [10] = biological target: Bovine serum albumin (bovine) (UniProt P02769); assay: adherence assay; MC02152 cells (46°C) on BSA-coated wells (negative control); no IgG
# UniProt P02769, sequence (P02769 25-607 limits assumed): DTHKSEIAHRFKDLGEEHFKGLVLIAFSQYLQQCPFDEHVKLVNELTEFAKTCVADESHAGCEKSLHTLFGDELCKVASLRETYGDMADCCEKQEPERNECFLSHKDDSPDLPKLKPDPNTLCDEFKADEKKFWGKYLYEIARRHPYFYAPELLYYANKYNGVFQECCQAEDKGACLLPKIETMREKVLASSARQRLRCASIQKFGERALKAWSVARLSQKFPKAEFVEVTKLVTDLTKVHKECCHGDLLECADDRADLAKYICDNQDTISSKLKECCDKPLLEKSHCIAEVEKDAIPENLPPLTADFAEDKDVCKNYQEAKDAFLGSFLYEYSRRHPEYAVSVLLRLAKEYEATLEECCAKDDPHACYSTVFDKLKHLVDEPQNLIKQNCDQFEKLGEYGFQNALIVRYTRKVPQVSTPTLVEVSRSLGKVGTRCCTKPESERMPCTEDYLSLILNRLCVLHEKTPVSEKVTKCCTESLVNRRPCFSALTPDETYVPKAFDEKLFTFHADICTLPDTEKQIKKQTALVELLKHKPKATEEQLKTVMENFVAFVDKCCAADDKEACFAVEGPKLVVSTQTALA
# [11] = biological target: Collagen type I (Sigma), immobilized; assay: adherence assay, 46°C-grown cells on CI-coated wells
# [12] = biological target: Mouse laminin (isolated from the EHS-sarcoma, Life Technologies) (mouse) (UniProt P19137); assay: adherence assay, 46°C-grown cells on LN-coated wells
# Collagen type IV (Sigma) [13] = assay: adherence assay, 46°C-grown cells on CIV-coated wells
# [14] = biological target: Collagen type I (Sigma), immobilized; assay: adherence assay; OG1RF cells (46°C) on CI-coated wells; no IgG
# [15] = biological target: Mouse laminin (isolated from the EHS-sarcoma, Life Technologies) (mouse) (UniProt P19137); assay: adherence assay; OG1RF cells (46°C) on LN-coated wells; no IgG
# [16] = biological target: Collagen type I (Sigma), immobilized; assay: adherence assay; OG1RF cells (46°C) on CI-coated wells; no IgG; remark: listed apart in the source
# [17] = biological target: Mouse laminin (isolated from the EHS-sarcoma, Life Technologies) (mouse) (UniProt P19137); assay: adherence assay; OG1RF cells (46°C) on LN-coated wells; no IgG; remark: listed apart in the source
# Collagen type IV (Sigma) [18] = assay: adherence assay; OG1RF cells (46°C) on CIV-coated wells; no IgG
# Collagen type IV (Sigma) [19] = assay: as above; remark: listed apart in the source
# [20] = biological target: Bovine serum albumin (bovine) (UniProt P02769); assay: adherence assay; OG1RF cells (46°C) on BSA-coated wells (negative control); no IgG
# [21] = biological target: Bovine serum albumin (bovine) (UniProt P02769); assay: as above; remark: listed apart in the source
# [22] = biological target: Collagen type I (Sigma), immobilized; assay: adherence assay, 35S-labelled 46°C-grown OG1RF cells on CI-coated wells (3.3% is the ace mutant TX5256)
# [23] = biological target: Collagen type I (Sigma), immobilized; assay: adherence assay; V583 cells (46°C) on CI-coated wells; no IgG
# [24] = biological target: Mouse laminin (isolated from the EHS-sarcoma, Life Technologies) (mouse) (UniProt P19137); assay: adherence assay; V583 cells (46°C) on LN-coated wells; no IgG
# Collagen type IV (Sigma) [25] = assay: adherence assay; V583 cells (46°C) on CIV-coated wells; no IgG
# [26] = biological target: Bovine serum albumin (bovine) (UniProt P02769); assay: adherence assay; V583 cells (46°C) on BSA-coated wells (negative control); no IgG
# [27] = biological target: Bovine Type I collagen (Collagen Corp.), immobilized on a CM5 sensor chip (bovine) (UniProt P02453); assay: SPR (BIAcore 1000), Scatchard analysis of equilibrium responses, 1-70 µM Ace A over immobilised collagen; three measurements
# UniProt P02453, sequence (P02453 162-1217, chain 1 of 2): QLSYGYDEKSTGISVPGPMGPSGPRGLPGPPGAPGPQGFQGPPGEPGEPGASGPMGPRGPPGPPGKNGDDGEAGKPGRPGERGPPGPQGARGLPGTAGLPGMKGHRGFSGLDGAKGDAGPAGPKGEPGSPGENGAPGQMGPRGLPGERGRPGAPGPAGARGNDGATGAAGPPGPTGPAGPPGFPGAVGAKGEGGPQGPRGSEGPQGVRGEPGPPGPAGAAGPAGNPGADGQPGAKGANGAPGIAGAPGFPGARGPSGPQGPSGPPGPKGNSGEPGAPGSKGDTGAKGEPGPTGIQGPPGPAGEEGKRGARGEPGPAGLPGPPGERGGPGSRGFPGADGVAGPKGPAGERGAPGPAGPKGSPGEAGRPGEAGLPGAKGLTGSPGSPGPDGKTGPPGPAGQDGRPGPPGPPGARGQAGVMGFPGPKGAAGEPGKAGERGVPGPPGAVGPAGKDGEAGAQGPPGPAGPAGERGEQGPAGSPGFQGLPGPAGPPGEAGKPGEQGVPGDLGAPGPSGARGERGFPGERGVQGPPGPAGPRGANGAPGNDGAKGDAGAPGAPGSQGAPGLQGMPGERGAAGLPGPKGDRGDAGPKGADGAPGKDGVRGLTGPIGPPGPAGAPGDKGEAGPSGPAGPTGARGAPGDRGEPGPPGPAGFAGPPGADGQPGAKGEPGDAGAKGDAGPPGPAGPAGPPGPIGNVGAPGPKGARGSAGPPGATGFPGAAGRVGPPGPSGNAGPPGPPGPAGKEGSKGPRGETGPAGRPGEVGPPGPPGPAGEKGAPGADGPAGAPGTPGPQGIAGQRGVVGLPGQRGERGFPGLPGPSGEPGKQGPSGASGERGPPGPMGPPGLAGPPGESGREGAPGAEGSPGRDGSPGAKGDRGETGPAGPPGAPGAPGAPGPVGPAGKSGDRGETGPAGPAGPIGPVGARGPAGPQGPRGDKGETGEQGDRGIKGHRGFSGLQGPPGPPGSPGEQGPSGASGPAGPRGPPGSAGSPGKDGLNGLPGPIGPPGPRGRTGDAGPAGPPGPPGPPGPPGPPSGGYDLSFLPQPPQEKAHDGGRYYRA
# UniProt P02453, sequence (P02465 80-1117, chain 2 of 2, further chain): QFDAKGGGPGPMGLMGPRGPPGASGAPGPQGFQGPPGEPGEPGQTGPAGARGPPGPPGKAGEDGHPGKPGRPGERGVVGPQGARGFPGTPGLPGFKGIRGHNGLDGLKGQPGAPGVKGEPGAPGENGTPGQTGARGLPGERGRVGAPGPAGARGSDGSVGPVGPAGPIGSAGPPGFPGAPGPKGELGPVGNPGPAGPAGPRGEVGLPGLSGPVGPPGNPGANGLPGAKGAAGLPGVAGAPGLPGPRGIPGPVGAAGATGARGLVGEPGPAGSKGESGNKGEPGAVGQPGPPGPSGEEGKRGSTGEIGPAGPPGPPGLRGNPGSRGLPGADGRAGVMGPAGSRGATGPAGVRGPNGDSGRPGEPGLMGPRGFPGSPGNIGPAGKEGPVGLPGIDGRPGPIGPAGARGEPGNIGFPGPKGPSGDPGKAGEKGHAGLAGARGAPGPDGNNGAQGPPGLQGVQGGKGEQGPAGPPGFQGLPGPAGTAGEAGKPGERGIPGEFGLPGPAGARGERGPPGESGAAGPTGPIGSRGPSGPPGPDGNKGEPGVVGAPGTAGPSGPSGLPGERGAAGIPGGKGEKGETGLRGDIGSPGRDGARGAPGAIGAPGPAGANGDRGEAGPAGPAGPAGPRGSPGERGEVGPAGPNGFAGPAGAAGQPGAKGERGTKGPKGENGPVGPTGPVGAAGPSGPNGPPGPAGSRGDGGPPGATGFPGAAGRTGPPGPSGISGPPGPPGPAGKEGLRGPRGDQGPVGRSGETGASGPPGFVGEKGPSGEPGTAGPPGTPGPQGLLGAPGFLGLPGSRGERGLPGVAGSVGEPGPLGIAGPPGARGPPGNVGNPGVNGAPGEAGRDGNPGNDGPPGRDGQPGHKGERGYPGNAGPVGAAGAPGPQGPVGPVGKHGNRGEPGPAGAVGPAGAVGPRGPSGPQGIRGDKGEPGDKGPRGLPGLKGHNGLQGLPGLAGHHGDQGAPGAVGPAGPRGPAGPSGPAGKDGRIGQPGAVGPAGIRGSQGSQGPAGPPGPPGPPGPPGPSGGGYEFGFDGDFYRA
substance,measurement,setting,value
Ace protein of E. faecalis strain MC02152 (native; on cells or in mutanolysin extract),% of cells bound,[1],6%
same,% of cells bound,[2],7.1%
same,% of cells bound,[3],29%
same,% of cells bound,[4],41%
same,% of cells bound,Collagen type IV (Sigma) [5],8.9%
same,% of cells bound,Collagen type IV (Sigma) [6],38%
same,% of cells bound,[7],26%
same,% of cells bound,[8],26.7%
same,% of cells bound,Collagen type IV (Sigma) [9],27.7%
same,% of cells bound,[10],0.6%
Ace protein of E. faecalis strain OG1RF (native; on 46°C-grown cells or in mutanolysin-PMSF extracts),"fold decrease in percentage of binding, ace mutant TX5256 against OG1RF",[11],6.5 fold
same,"fold decrease in adherence, ace mutant TX5256 against OG1RF",[12],32.9 fold
same,"fold decrease in adherence, ace mutant TX5256 against OG1RF",Collagen type IV (Sigma) [13],27.4 fold
same,% of cells bound,[14],24.6%
same,% of cells bound,[15],32%
same,% of cells bound,[16],25.6%
same,% of cells bound,[17],31.9%
same,% of cells bound,Collagen type IV (Sigma) [18],29.6%
same,% of cells bound,Collagen type IV (Sigma) [19],27.7%
same,% of cells bound,[20],0.9%
same,% of cells bound,[21],0.6%
same,% of cells bound,[22],21.1%
Ace protein of E. faecalis strain V583 (native; on 46°C-grown cells or in mutanolysin extract),% of cells bound,[23],29.2%
same,% of cells bound,[24],29.4%
same,% of cells bound,Collagen type IV (Sigma) [25],38.1%
same,% of cells bound,[26],0.7%
Recombinant E. faecalis EF1 Ace A domain (N-terminal His6-tag fusion protein),Kd,[27],48 µM

# Source: patent EP1177203B1
